Among the data in paper PMC3936742 (Nucleic Acids Research, 2013) are Kd values, retold here.

The target of this test is T1, Flag-MnmC(o), C-terminal oxidoreductase domain of MnmC (amino acids 250-668) (E. coli, UniProt P77182 250-668).
T1 sequence (looked up): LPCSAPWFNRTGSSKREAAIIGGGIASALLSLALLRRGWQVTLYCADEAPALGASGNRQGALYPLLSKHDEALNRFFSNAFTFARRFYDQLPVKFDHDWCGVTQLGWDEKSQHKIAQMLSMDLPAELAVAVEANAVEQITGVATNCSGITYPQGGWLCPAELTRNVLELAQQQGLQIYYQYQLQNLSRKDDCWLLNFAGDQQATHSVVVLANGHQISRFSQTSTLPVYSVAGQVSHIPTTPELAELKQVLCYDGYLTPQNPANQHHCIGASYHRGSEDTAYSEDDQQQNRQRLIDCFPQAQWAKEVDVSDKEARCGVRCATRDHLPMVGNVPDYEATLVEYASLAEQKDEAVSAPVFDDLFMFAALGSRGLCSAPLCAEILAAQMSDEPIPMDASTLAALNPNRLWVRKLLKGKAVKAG
In words: SPR; His-MnmC(m) captured (~600 RU) on anti-His monoclonal antibody coupled to a CM-5 chip; Flag-MnmC(o) at various concentrations in TBS buffer, 30 µl/min, 25°C; apparent equilibrium constant. The following applies: both partners purified.

B1: His-MnmC(m), MnmC(m) domain fused at its N-terminal end to a 6x-His-epitope (domain or fragment, E. coli, UniProt P77182 1-250, looked up)
chain: MKHYSIQPANLEFNAEGTPVSRDFDDVYFSNDNGLEETRYVFLGGNQLEVRFPEHPHPLFVVAESGFGTGLNFLTLWQAFDQFREAHPQAQLQRLHFISFEKFPLTRADLALAHQHWPELAPWAEQLQAQWPMPLPGCHRLLLDEGRVTLDLWFGDINELTSQLDDSLNQKVDAWFLDGFAPAKNPDMWTQNLFNAMARLARPGGTLATFTSAGFVRRGLQDAGFTMQKRKGFGRKREMLCGVMEQTLPL
For the molecule B1, the Kd stood at 87 ± 15 nM.
